Laboratory results as given in patent US11673947B2, “Target tissue-specific antigen-binding molecule” (Chugai Seiyaku Kabushiki Kaisha, priority 2012, dated 2023).
Positions count from the first letter of the chain named.

How the values were obtained:
human IL6 = human IL6 (Homo sapiens, UniProt P05231); assay: Phage ELISA, binding to human IL6 in the presence or absence of adenosine and/or ATP; details: with or without 10 mM adenosine and ATP
Method: (§1) Phage-containing culture supernatants were collected according to a conventional method (Methods Mol. Biol. (2002) 178, 133-145) from single colonies of E. coli obtained by the method described above. The collected culture supernatants were treated by ultrafiltration using NucleoFast 96 (MACHERY-NAGEL). 100 μl of the culture supernatants were added to each well of NucleoFast 96, and it was centrifuged (4500 g for 45 minutes) to remove flow through. After addition of 100 μl of H2O, the NucleoFast 96 was washed by centrifugation (4500 g for 30 minutes). Finally, 100 μl of TBS was added, and the NucleoFast 96 was allowed to stand for five minutes at room temperature. A phage suspension was collected from the supernatant in each well of the NucleoFast 96.
(§2) The purified phages, to which TBS or (adenosine+ATP)/TBS was added, were subjected to ELISA by the following procedure. A StreptaWell 96 microtiter plate (Roche) was coated overnight with 100 μl of TBS containing biotin-labeled antigen. […] Then, the developed color was assessed by measuring absorbance at 450 nm. […]
(§3) First, a StreptaWell 96 microtiter plate (Roche) was coated at room temperature for one hour or more with 100 μl of TBS containing a biotin-labeled antigen. […] Then, the developed color was assessed by measuring absorbance at 450 nm (FIGS. 25, 26, and 27). […]

[1] = molecular target: HSA (human serum albumin) (Homo sapiens, UniProt P02768); assay: Phage ELISA, binding to HSA in the presence or absence of adenosine and/or ATP; details: with or without 10 mM adenosine and ATP
Method: as §1, §2, §3

human IgA-Fc = human IgA-Fc (Homo sapiens, UniProt P01876); assay: Phage ELISA, binding to human IgA-Fc in the presence or absence of adenosine and ATP (monovalent / multivalent display)
Method: Culture supernatants containing phages were collected according to a conventional method (Methods Mol. Biol. (2002) 178, 133-145) from single colonies of E. coli obtained by the method described above. The collected culture supernatants were ultrafiltrated using NucleoFast 96 (MACHERY-NAGEL). 100 μl of the culture supernatants were added to each well of NucleoFast 96 and centrifuged (4500 g for 45 minutes) to remove flow-through. After 100 μl of H2O was added, the NucleoFast 96 was washed by centrifugation (4500 g for 30 minutes). Finally, 100 μl of TBS was added, and the NucleoFast 96 was allowed to stand for five minutes at room temperature. A phage solution contained in the supernatant in each well was collected.
Purified phages, to which TBS or (adenosine+ATP)/TBS was added, were subjected to ELISA by the following procedure. A StreptaWell 96 microtiter plate (Roche) was coated overnight with 100 μl of TBS containing a biotin-labeled antigen. After the antigen was removed from each well of the plate by washing with TBST, the wells were blocked with 250 μl of 2% skim milk/TBS for one hour or more. 2% skim milk/TBS was removed, and then the prepared, purified phages were added to each well. […] Then, the developed color was assessed by measuring absorbance at 450 nm.

human IL6, sequence (P05231 30-212): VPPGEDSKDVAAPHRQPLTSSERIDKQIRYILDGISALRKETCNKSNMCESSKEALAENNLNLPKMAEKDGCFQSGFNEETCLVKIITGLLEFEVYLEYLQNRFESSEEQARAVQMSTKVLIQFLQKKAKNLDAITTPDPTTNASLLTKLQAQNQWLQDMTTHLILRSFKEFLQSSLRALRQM
human IgA-Fc, sequence (P01876 with tags, fused parts or gaps isoform P01876-1): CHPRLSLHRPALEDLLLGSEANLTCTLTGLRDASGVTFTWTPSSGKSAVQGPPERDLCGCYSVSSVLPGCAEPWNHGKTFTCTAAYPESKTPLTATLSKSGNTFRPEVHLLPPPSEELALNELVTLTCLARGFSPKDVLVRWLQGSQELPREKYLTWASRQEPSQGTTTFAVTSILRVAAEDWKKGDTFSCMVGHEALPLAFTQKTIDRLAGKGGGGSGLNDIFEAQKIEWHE

B1: I6RLSA1-6_011: clone with antigen-binding activity to human IL-6 in the absence of ATP and adenosine (antibody, V domains shown)
VH: EVQLVESGGDLVKPGGGLRLSCAASGFTFSGYTMHWVRQAPGKGLEWVSSISSRSSHISYADSVKGRFTISRDNAKNSLYLQMNSLRAEDTAVYYCARFGRKYRMNWVFDYWGQGTLVTVSS
VL: QSALTQPPSASGSPGQTVTISCTGTSTDVGFYNYVSWYQQHPGKAPKLMIYDTSKRPSGVPDRFSGSKSGNTASLTVSGLQAEDEADYFCSTVTGIWSVGFGGGTKLTVL
antigen-binding activity to human IL-6 in the absence of ATP and adenosine (human IL6): had an antigen-binding activity

B2: HSADSA1-6_020: clone with antigen-binding activity to HSA in the absence of ATP and adenosine (antibody, V domains shown)
VH: B1 VH with G31S, Y32H, H35N, S56N, I58A, S59T, R101K, Y103G, M105Y, N106L
VL: QSALTQPPSASGSPGQTVTISCTGTSSDVGDYNYVSWYQQHPGKAPKLMIYYVSKRPSGVPDRFSGSKSGNTASLTVSGLQAEDEADYFCSLTTDSLNPVFGGGTKLTVL
antigen-binding activity to human serum albumin (HSA) in the absence of ATP and adenosine [1]: had antigen-binding activity

B3: IADL3C5-4_048: clone binding human IgA-Fc in the presence of adenosine and ATP; SEQ ID NOs: 100 and 101 (antibody, listed as Homo sapiens, V domains shown)
VH: B1 VH with Y32H, H35N, S56N, S59Y, F99Y, Y103F, R104M
VL: B1 VL with D52Q, T53N, T92L, V93R, T94S, G95S, I96N, W97L, V99P
antigen-binding activity in the presence of adenosine and ATP (human IgA-Fc): exhibits antigen-binding activity
